Assay [1] addresses T1, PCSK9-His (UniProt Q8NBP7 31-692).
T1 construct: also called antigen PCSK9-His; Proprotein Convertase Subtilisin/Kexin Type 9; not shown: His tag
The experiment in a line: ELISA, PCSK9-His coated, complete antibody titrated, anti-human IgG-HRP. As to the method: Coating PCSK9-His (300 ng/well/100 μl) by 0.01M PBS buffer at pH 7.2 overnight at 4° C., washing three times with PBST (1‰ Tween 20) of 300 μl/well, further adding PBST-4% milk, and blocking for one hour at 37° C.; adding complete antibodies DFSK9-1, DFSK9-12, DFSK9-13, DFSK9-14, DFSK9-15, DFSK9-16, DFSK9-17, DFSK9-18, DFSK9-19, DFSK9-20 and DFSK9-21 of different dilution degrees; the highest concentration of the 11 complete antibodies is 50 μg/ml, diluting at a five-time gradient, diluting for eight gradients for each complete antibody, and incubating for one hour at 37° C.; washing 5 times with PBST of 300 μl/well, further adding a goat-anti-human IgG-HRP secondary antibody diluted by PBST-4% milk at a ratio of 1:5000, and incubating for one hour at 37° C.; washing 5 times with PBST of 300 μl/well, developing by using a Tetramethylbenzidine (TMB) developing kit (100 μl/well), developing for 10 minutes at a room temperature, and terminating developing with 2M H₂SO₄ (50 μl/well); reading numbers by using a microplate reader at wavelengths of 450 nm and 630 nm; analyzing data and drawing pictures by using software GraphPad Prism 5Demo, and results are shown in FIG. 8 and table 2.

The target in assay [2] is T1, PCSK9-His. The experiment in a line: competition ELISA, LDLR-Fc coated, PCSK9-His 2 ug/ml, antibody titrated, anti-His-HRP. As to the method:
Coating LDLR-Fc (100 ng/well/100 μl) by 0.01M PBS buffer at pH 7.2 overnight at 4° C., washing three times with PBST, further adding PBST-4% milk, and blocking for one hour at 37° C.; further adding 2 μg/ml PCSK9-His (100 μlwell) diluted by PBST-4% milk, and incubating to one hour at 37° C.; adding complete antibodies DFSK9-1, DFSK9-12, DFSK9-13, DFSK9-14, DFSK9-15, DFSK9-16, DFSK9-17, DFSK9-18, DFSK9-19, DFSK9-20 and DFSK9-21 of different dilution degrees; the highest concentration of the 11 complete antibodies is 100 μg/ml, diluting at a five-time gradient, diluting for eight gradients for each complete antibody, and incubating for 2 hours at 37° C.; washing 5 times with PBST, further adding a mouse-anti His IgG-HRP secondary antibody diluted by PBST-4% milk, and incubating for 1 hour at 37° C.; developing by using the TMB developing kit (100 μl/well), developing for 10 minutes at the room temperature, and terminating developing with 2M H₂SO₄ (50 μl/well); reading numbers by using the microplate reader at 450 nm and 630 nm; analyzing data and drawing pictures by using software GraphPad Prism 5 Demo, and results are shown in FIG. 9 and table 3.

Assay [3] deals with T2, PCSK9 (UniProt Q8NBP7 31-692, limits assumed). The experiment in a line: cell-based or functional assay.
T2 sequence (Q8NBP7 31-692 limits assumed): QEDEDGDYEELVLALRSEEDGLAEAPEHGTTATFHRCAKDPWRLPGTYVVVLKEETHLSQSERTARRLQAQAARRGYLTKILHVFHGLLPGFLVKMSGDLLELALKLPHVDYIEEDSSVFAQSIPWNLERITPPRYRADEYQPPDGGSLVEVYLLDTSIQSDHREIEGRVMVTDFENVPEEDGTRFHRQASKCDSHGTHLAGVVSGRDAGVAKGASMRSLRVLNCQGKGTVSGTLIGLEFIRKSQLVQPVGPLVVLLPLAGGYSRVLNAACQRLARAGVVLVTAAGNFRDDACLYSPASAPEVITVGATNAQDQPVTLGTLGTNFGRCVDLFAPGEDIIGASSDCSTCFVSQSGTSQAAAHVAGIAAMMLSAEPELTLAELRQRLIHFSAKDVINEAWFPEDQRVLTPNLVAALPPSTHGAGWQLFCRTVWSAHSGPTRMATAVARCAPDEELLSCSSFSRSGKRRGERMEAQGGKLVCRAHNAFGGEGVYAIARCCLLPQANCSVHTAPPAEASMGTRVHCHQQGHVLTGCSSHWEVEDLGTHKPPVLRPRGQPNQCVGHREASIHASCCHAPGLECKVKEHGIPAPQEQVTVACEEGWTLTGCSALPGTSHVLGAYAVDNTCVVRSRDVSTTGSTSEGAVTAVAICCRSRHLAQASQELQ
The target in assay [4] is T2, PCSK9. The experiment in a line: SPR BIAcore X100, antibody captured by goat anti-human IgG on CM5, PCSK9 as analyte. For orientation: In SPR one partner is held on a chip, and binding of the other changes the refractive index at the surface.

Changes are numbered by the printed parent chain.

T1 sequence (Q8NBP7 31-692 limits assumed): as above

B1: DFSK9-13 complete antibody (antibody, V domains shown)
VH: QVQLVQSGAEVKKPGASVKVSCKASGYSLTSYGISWVRQAPGQGLEWMGWVSFYQGNTNYAQKLQGRGTMTTDPSTSTAYMELRSLRSDDTAVYYCARGYGMTVWGQGTTVTVSS
VL: DIQMTQSPSSLSASVGDRVTITCRASQDVDSWLTWYQQKPGKAPKLLIYGASNLASGVPSRFSGSGSGTDFTLTISSLQPEDFATYYCQQDSKIPLTFGQGTKVEIK
Usually EC50 stands for the concentration giving half of the maximal effect. The low end stands for higher potency in that assay, the high end for lower potency in that assay. One may read the IC50 as the concentration at which inhibition is half-maximal. A lower IC50 goes with greater potency. By Kd is commonly meant the constant that tells how readily two partners part at equilibrium. A lower Kd goes with a tighter complex. Usually koff stands for the rate constant with which the complex falls apart. In general, kon refers to the rate constant with which the complex forms. On to B1, for which the 50% effective concentration (EC50) in assay [1] was found to be 0.0835 µg/mL. Moreover, the IC50 in assay [2] came to 0.383 µg/mL. In addition, the “EC50 value of bioactivity testing (BODIPY-LDL uptake in HepG2 cells, RFU)” value (“EC50 value of bioactivity testing” for short) in assay [3] was 29.6 nM. In assay [4], this molecule had a Kd of 0.052 nM, a koff of 2.99e-05 s⁻¹ and a kon of 575000 M⁻¹ s⁻¹.

B2: DFSK9-12 complete antibody (antibody, V domains shown)
VH: B1 VH with S28T, L29V, V51L, Q55N, G101S, M102L, T103D
VL: B1 VL with D28S, D30R, S31N, T34D, N53T, A55E, S92N, K93D
In the case of B2, the 50% effective concentration (EC50) in assay [1] stood at 0.0646 µg/mL. The IC50 in assay [2] was 0.266 µg/mL. Besides, in assay [4], the dissociation constant (Kd) was 0.119 nM, the koff worked out at 4.98e-05 s⁻¹ and the kon was found to be 418000 M⁻¹ s⁻¹.

B3: DFSK9-18 complete antibody (antibody, V domains shown)
VH: B1 VH with S28T, L29V, Q55N, T58S, G101S, M102L, T103D
VL: DIQMTQSPSSLSASVGDRVTITCRASQNINSWLNWYQQKPGKAPKLLIYGASSRQSGVPSRFSGSGSGTDFTLTISSLQPEDFATYYCQQWFDVPTTFGQGTKVEIK
With B3, in assay [1], the EC50 stood at 0.0339 µg/mL. The molecule also showed an IC50 in assay [2] of 0.107 µg/mL. Further, the “EC50 value of bioactivity testing” value in assay [3] stood at 23.9 nM. In assay [4], this molecule gave a Kd of 0.00389 nM, a koff of 1.99e-06 s⁻¹ and a kon of 512000 M⁻¹ s⁻¹.

B4: DFSK9-20 complete antibody (antibody, V domains shown)
VH: B1 VH with Q55N, T58S, Y100F, T103D, V104R
VL: B3 VL with S31N, S53T, Q55P, S56T, F92D, V94T, T96N
Turning to B4, a half-maximal response in assay [1] (EC50) required 0.0337 µg/mL. Besides, the half-maximal inhibitory concentration (IC50) in assay [2] was found to be 0.216 µg/mL. For the same molecule, the “EC50 value of bioactivity testing” value in assay [3] stood at 17.9 nM. In assay [4], this molecule registered a Kd of 0.0157 nM, a dissociation rate constant (koff) of 1.45e-05 s⁻¹ and a kon of 925000 M⁻¹ s⁻¹.

B5: DFSK9-17 complete antibody (antibody, V domains shown)
VH: B1 VH with S28T, L29V, Q55N, T58S, G101S, M102L, T103D
VL: B3 VL with S31N, S53T, Q55P, S56T, F92D, V94T, T96N
B5 had an EC50 in assay [1] of 0.0314 µg/mL. This molecule displayed an IC50 in assay [2] of 0.089 µg/mL. For the same molecule, in assay [3], the “EC50 value of bioactivity testing” value is 18.5 nM. In assay [4], this molecule showed a dissociation constant (Kd) of 0.00156 nM, a koff of 1.84e-06 s⁻¹ and an on-rate constant (kon) of 1.18e+06 M⁻¹ s⁻¹.

B6: DFSK9-21 complete antibody (antibody, V domains shown)
VH: B1 VH with Q55N, N57Q, Y100F, T103D, V104R
VL: B3 VL with S31N, S53T, Q55P, S56T, F92D, V94T, T96N
notes: also called DF5K9-21
B6 yielded an EC50 in assay [1] of 0.0282 µg/mL. Also, the 50% inhibitory concentration (IC50) in assay [2] worked out at 0.161 µg/mL. Moreover, in assay [3], the “EC50 value of bioactivity testing” value was found to be 20.3 nM. In assay [4], this molecule had a Kd of 0.00716 nM, an off-rate constant (koff) of 4.24e-06 s⁻¹ and an on-rate (kon) of 592000 M⁻¹ s⁻¹.

B7: DFSK9-15 complete antibody (antibody, V domains shown)
VH: B1 VH with S28T, L29V, Q55N, N57Q, G101S, M102L, T103D
VL: B3 VL with S31N, S53T, Q55P, S56T, F92D, V94T, T96N
With B7, the concentration for a half-maximal effect (EC50) in assay [1] was 0.0397 µg/mL. The same molecule registered a half-inhibitory concentration (IC50) in assay [2] of 0.114 µg/mL. For the same molecule, in assay [3], the “EC50 value of bioactivity testing” value was found to be 15.3 nM. Moreover, in assay [4], the equilibrium dissociation constant (Kd) is 0.00875 nM, the koff stood at 4.75e-06 s⁻¹ and the kon came to 542000 M⁻¹ s⁻¹.

B8: DFSK9-19 complete antibody (antibody, V domains shown)
VH: B1 VH with S52T, Q55N, Y100F, M102L, T103S
VL: B3 VL with I29V, S31N, G50A, S53T, Q55E, S56T, W91D, F92N, V94M, T96L
B8 came in with an EC50 in assay [1] of 0.0832 µg/mL. The concentration for half-maximal inhibition (IC50) in assay [2] was 0.533 µg/mL. Moreover, in assay [4], the dissociation constant (Kd) is 0.186 nM, the koff stood at 7.34e-05 s⁻¹ and the kon turned out to be 395000 M⁻¹ s⁻¹.

B9: DFSK9-16 complete antibody (antibody, V domains shown)
VH: B1 VH with S28T, L29V, Y100F, T103D, V104R
VL: B3 VL
B9: the EC50 in assay [1] came to 0.0562 µg/mL. For the same molecule, the half-maximal inhibitory concentration (IC50) in assay [2] was 0.282 µg/mL. In addition, the “EC50 value of bioactivity testing” value in assay [3] was determined as 23.8 nM. In assay [4], this molecule came in with a dissociation constant (Kd) of 0.0461 nM, a koff of 5.61e-05 s⁻¹ and an on-rate (kon) of 1.22e+06 M⁻¹ s⁻¹.

B10: DFSK9-14 complete antibody (antibody, V domains shown)
VH: B1 VH with Q55N, N57Q, T103S, V104I
VL: B3 VL
Regarding B10, the 50% effective concentration (EC50) in assay [1] came out at 0.0422 µg/mL. In addition, in assay [2], the concentration for half-maximal inhibition (IC50) was 0.146 µg/mL. Further, in assay [3], the “EC50 value of bioactivity testing” value is 16.6 nM. In assay [4], this molecule displayed a Kd of 0.0293 nM, a dissociation rate constant (koff) of 7.9e-05 s⁻¹ and a kon of 2.7e+06 M⁻¹ s⁻¹.

B11: DFSK9-1 complete antibody (antibody, V domains shown)
VH: QVQLVQSGAEVKRPGASVKVSCKASGGTFTNNAISWVRQAPGQGLEWMGRIIPMFGMANYAQKLQGRGTMTTDPSTSTAYMELRSLRSDDTAVYYCAREGIPMIWGQGTTVTVSS
VL: B3 VL with N28S, N30D, S31N, W32R, N34T, G50D, W91P, F92E, D93N, V94D
B11: the response in assay [1] was half-maximal at 0.171 µg/mL (EC50). This molecule came in with a half-inhibitory concentration (IC50) in assay [2] of 0.847 µg/mL. In assay [4], this molecule displayed an equilibrium dissociation constant (Kd) of 0.175 nM, a koff of 9.19e-05 s⁻¹ and an on-rate constant (kon) of 518000 M⁻¹ s⁻¹.

(Values after patent publication US20210277146A1 (BEIJING DONGFANG BIOTECH, published 2021).)
